Here are results for two molecules from paper PMC10565809 (2022).

For experiment [1], the target named is GFRα1 soluble form (Homo sapiens) (UniProt P56159). Kind of experiment: SPR. The following applies: cited from earlier work.
A further experiment has as its target T1, GFRα1 (Homo sapiens, UniProt P56159).
T1 chain: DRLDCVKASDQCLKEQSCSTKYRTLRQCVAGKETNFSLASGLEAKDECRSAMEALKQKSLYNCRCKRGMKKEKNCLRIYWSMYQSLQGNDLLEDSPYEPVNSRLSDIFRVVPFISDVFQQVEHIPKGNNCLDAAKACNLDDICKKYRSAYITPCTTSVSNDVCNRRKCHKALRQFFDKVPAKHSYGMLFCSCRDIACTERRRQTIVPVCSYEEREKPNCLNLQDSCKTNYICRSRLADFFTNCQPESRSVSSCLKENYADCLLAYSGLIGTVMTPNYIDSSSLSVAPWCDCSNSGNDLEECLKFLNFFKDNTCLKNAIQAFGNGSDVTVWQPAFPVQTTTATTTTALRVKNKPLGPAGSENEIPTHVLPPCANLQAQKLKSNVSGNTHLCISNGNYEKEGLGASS
Kind of experiment: MST.

By Kd is commonly meant the equilibrium constant for the complex coming apart. On to GDNF (from UniProt P39905), for which, in experiment [1], the Kd was 0.63 nM.

B1: GDNF (protein)
chain: KRSPDKQMAVLPRRERNRQAAAANPENSRGKGRRGQRGKNRGCVLTAIHLNVTDLGLGYETKEELIFRYCSGSCDAAETTYDKILKNLSRNRRLVSDKVGQACCRPIAFDDDLSFLDDNLVYHILRKHSAKRCGCI
For B1, the Kd with GFRα1 amounted to 260 nM.
